Results as given in PMC2018723.

Target: viral nucleoprotein complex (HIV-1) (HIV-1 (pNL4-3))
Experiment: co-sedimentation; concentrated vif-defective HIV-1 virions from transfected HeLa cells loaded on a 20%/60% sucrose step gradient overlaid with 100 ul of 1% Triton X-100 (results: 0.1% Triton X-100) or PBS; SW55Ti, 60 min, 35,000 rpm, 4°C; fractions S1-S3 immunoblotted for APOBEC, CA, NC, MA

## APOBEC3G (from UniProt Q9HC16 1-384) (enzyme)
  percent of virus-associated A3G copurifying with viral NPCs: > 70%
